From patent publication US20230076357A1

Assays:
Test in all cases: cell-based or functional assay
[1] = molecular target: nCas9-LZ1 (NLS-SpCas9(H840A)-NLS-EE12RR345L(leucine zipper)) (Streptococcus pyogenes serotype M1) (UniProt Q99ZW2)
[2] = molecular target: nCas9(1-1172)-Npu N intein (Streptococcus pyogenes serotype M1) (UniProt Q99ZW2)
[3] = molecular target: constitutively active SAMHD1 (SAMHD1 (T592A)) (UniProt Q9Y3Z3)
Chain of constitutively active SAMHD1 (SAMHD1 (T592A)) (Q9Y3Z3 whole entry T592A): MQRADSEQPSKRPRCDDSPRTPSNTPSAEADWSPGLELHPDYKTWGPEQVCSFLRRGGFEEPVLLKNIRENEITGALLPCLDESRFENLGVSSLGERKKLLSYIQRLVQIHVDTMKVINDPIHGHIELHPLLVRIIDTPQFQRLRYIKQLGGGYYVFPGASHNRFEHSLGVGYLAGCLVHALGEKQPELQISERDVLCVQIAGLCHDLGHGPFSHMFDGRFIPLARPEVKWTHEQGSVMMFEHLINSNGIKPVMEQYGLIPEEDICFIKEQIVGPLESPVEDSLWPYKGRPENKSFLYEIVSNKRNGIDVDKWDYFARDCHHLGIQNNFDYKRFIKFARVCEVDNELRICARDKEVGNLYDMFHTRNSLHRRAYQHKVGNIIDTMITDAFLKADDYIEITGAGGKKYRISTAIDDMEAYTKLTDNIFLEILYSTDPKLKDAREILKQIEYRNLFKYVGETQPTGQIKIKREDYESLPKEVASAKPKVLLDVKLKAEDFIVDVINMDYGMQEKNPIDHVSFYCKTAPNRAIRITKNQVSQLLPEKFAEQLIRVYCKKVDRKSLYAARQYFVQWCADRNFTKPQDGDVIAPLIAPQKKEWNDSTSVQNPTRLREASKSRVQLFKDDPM

In the case of “LZ2-mlvRT (RR12EE345L(leucine zipper)-mlvRTv(D200N, L603W, T306K, W313F, T330P)-NLS) (enzyme)”, the editing efficiency (BFP to GFP conversion in HEK293T-BFP cells) [1] is reported as 38%.

With “Npu C intein-nCas9(1173-1368 with S1173C)-mlvRT5M (enzyme)” the editing efficiency (% GFP+) [2] was 29%.

In the case of “VPX^RH2-1 (variant of VPX from HIV-2 clinical isolate RH2-1) (from UniProt P20881 1-112)”, the editing efficiency with RW2I, edit 2 nt from the nick, SAMHD1 (T592A) coexpressed [3] is reported as 64%.

Work on “Vpx peptide (Hiv2-rod Vpx) (from UniProt P06939 1-112)” yielded an editing efficiency relative to that without SAMHD1^p-, edit 65 nt from the nick [3] of 78%.
